Measurements taken from publication PMC8602292, “Acyl carrier protein promotes MukBEF action in Escherichia coli chromosome organization-segregation” (Nature Communications, 2021).
Blank lines part the entries; values can stand above or below the binder they belong to.

Tests used:
[1] = biological target: T1, MukB^KRK (K1114E, R1122E and K1125E) (Escherichia coli, UniProt P22523 1-1486, K1114E | R1122E | K1125E); test: native gel or EMSA; BN-PAGE; MukB or MukB^HN (0-4.5 μM) with MukF (1.5 μM), MukE (3 μM) and AcpP as indicated or none; 1 mM DTT, 1 mM MgCl2, 30 min at 22 °C; 3-12% native Bis-Tris gels; AMPPNP in some samples; settings: both partners purified
T1 construct: E. coli MukB, triple charge-reversed mutant; source: E. coli FL01 (mukB 3xFLAG C3013I), purified (TALON, HiTrap Heparin, Superdex 200); not shown: His tag, C-terminal, kept
T1 sequence (looked up): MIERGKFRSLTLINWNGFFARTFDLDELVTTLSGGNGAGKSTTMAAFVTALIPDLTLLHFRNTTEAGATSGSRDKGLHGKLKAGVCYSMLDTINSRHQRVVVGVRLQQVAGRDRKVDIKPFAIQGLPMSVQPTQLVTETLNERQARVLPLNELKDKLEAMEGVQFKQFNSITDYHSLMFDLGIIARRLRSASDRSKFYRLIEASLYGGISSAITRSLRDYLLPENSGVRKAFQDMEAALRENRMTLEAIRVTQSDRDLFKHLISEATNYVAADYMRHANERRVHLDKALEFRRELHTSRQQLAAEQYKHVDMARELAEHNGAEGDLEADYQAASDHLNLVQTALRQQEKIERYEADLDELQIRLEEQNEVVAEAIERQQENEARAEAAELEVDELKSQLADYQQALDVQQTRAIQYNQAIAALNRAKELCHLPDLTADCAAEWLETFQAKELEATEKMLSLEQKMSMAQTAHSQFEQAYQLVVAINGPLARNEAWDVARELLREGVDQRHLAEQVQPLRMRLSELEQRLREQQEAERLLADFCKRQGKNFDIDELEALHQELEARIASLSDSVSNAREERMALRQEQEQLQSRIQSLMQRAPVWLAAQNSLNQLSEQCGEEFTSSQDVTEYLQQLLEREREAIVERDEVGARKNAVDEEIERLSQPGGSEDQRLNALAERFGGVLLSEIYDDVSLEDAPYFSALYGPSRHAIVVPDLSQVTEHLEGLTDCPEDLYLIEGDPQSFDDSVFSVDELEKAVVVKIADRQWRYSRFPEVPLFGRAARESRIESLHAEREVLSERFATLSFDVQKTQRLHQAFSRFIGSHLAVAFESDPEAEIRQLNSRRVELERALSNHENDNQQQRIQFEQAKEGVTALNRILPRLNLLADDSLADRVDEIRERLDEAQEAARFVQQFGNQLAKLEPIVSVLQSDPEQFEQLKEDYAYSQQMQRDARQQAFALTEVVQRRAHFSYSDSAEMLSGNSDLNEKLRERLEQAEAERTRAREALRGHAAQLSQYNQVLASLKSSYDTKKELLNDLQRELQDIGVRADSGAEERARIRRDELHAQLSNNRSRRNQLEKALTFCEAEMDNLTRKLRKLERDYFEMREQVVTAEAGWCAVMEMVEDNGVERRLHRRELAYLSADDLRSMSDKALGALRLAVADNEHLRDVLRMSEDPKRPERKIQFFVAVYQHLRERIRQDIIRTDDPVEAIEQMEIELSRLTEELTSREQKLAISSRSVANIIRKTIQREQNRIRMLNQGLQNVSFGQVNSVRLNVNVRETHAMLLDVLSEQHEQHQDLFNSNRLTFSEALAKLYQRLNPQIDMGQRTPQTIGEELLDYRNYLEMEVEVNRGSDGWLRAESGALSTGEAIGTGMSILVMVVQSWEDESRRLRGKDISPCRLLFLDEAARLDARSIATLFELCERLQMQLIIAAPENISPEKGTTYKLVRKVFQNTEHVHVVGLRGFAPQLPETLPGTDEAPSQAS

[2] = biological target: the molecule itself; test: native MS; mixtures of MukB, MukE, MukF and AcpP at various concentrations of MukB; 200 mM ammonium acetate pH 8.0

binding result [1]: binds
B1: MukE (MukE-His) (natural protein, Escherichia coli, UniProt P22524 1-234, looked up)
chain: MSSTNIEQVMPVKLAQALANPLFPALDSALRSGRHIGLDELDNHAFLMDFQEYLEEFYARYNVELIRAPEGFFYLRPRSTTLIPRSVLSELDMMVGKILCYLYLSPERLANEGIFTQQELYDELLTLADEAKLLKLVNNRSTGSDVDRQKLQEKVRSSLNRLRRLGMVWFMGHDSSKFRITESVFRFGADVRAGDDPREAQRRLIRDGEAMPIENHLQLNDETEENQPDSGEEE
notes: MukE, the KITE protein of Escherichia coli MukBEF; The end of the tag is read from the printed name 'MukE-His'; also called KITE protein MukE; source: E. coli C3013I (NEB), pET vector, purified (TALON, HiTrap DEAE FF, Superdex 200)

binding result [1]: binds
B2: MukF (His-MukF) (natural protein, Escherichia coli, UniProt P60293 1-440, looked up)
chain: MSEFSQTVPELVAWARKNDFSISLPVDRLSFLLAVATLNGERLDGEMSEGELVDAFRHVSDAFEQTSETIGVRANNAINDMVRQRLLNRFTSEQAEGNAIYRLTPLGIGITDYYIRQREFSTLRLSMQLSIVAGELKRAADAAEEGGDEFHWHRNVYAPLKYSVAEIFDSIDLTQRLMDEQQQQVKDDIAQLLNKDWRAAISSCELLLSETSGTLRELQDTLEAAGDKLQANLLRIQDATMTHDDLHFVDRLVFDLQSKLDRIISWGQQSIDLWIGYDRHVHKFIRTAIDMDKNRVFAQRLRQSVQTYFDEPWALTYANADRLLDMRDEEMALRDEEVTGELPEDLEYEEFNEIREQLAAIIEEQLAVYKTRQVPLDLGLVVREYLSQYPRARHFDVARIVIDQAVRLGVAQADFTGLPAKWQPINDYGAKVQAHVIDKY
notes: MukF, the kleisin of Escherichia coli MukBEF; The end of the tag is read from the printed name 'His-MukF'; also called kleisin MukF; source: E. coli C3013I (NEB), pET vector, purified (TALON, HiTrap DEAE FF, Superdex 200)
binding result [2]: binds
